Data set [1] deals with the molecule itself. Briefly: crystal structure; 0.1 M HEPES pH 6.5, 15% PEG 3350, 0.15 M (NH4)2SO4; two hexamers in the asymmetric unit.
Data set [2] deals with the molecule itself. In words: SEC-MALS; 100 μl samples at 3 mg/ml, Superdex S200 Increase 10/300 GL, 50 mM HEPES pH 8.0, 0.3 M NaCl, no metal added.
Data set [3] deals with the molecule itself. In words: AUC; sedimentation velocity, 0.5 mg/ml, 20 °C, 50 mM HEPES pH 8.0, 0.3 M NaCl with 50 μM MnCl2.
Data set [4] deals with the molecule itself. In words: SEC; in the presence of 100 mM EDTA. Background: Size exclusion chromatography separates by hydrodynamic size, large species first.
Data set [5] deals with the molecule itself. Briefly: AUC; sedimentation velocity, 0.5 mg/ml, 20 °C, 40,000 rpm, 50 mM HEPES pH 8.0, 0.3 M NaCl, no metal added.

The values that follow come from publication PMC7948507, “Active site metals mediate an oligomeric equilibrium in Plasmodium M17 aminopeptidases” (The Journal of Biological Chemistry, 2020).

Substitutions are numbered along the chain they refer to. Names and notes keep the numbering of the source.

B1: Pv-M17Δ125-151 (enzyme)
chain: MATTVPQVVSLDPTTIPIDYHTPIDDLSIEVKDISAEACPADEGLIVFLLNSQIKINSSVKDNTINEFLKEGNMENFTGKLGTSKSFYIANDQKKYVSLAYVGCGPANEETELEIRKVAYALVTLLHDSKHKKVSIIFEIKIEEALFRFFLEHLFYEYVTDERFKSADKSTETDFIKNLSLHIANADAYKGQIDKARVYFYGTYYAAQLIAAPSNYCNPVSLSNAAVELAQKVNLECKILDVKELEELKMGAYLSVGKGSMYPNKFIHLTYKGAQTGASQNEKKKIALIGKGITFDSGGYNLKAAPGSMIDLMKFDMSGCAAVLGCAYCIGTIKPDNVEVHFLSAVCENMVSKNSYRPGDIITASNGKTIEVGNTDAEGRLTLADALVYAEKLGVDYIVDIATLTGAMLYSLGTSYAGVFGNNDQLINKILSSSKTSNEPVWWLPIINEYRSSLNSKYADLNNISSSVKASSVVASLFLKEFIENTPWAHIDIAGVSWNFKARKPKGFGVRLLTEFVLNDAV
notes: also called Pv-M17 N-terminal loop deletion mutant; source: E. coli BL21 DE3, purified (Ni-NTA, SEC)
For the protein B1, the stoichiometry N (as a rule, the number of molecules, sites or subunits per partner or assembly) in data set [1] is 6.

B2: Plasmodium vivax M17 aminopeptidase Pv-M17 (residues 73-621), wild type (enzyme, UniProt A5K3U9 73-621, looked up)
chain: MATTVPQVVSLDPTTIPIDYHTPIDDLSIEVKDISAEACPADEGLIVFLLNSAPKHSSSGGSGGNGGSAGSSGNGEGGAQIKINSSVKDNTINEFLKEGNMENFTGKLGTSKSFYIANDQKKYVSLAYVGCGPANEETELEIRKVAYALVTLLHDSKHKKVSIIFEIKIEEALFRFFLEHLFYEYVTDERFKSADKSTETDFIKNLSLHIANADAYKGQIDKARVYFYGTYYAAQLIAAPSNYCNPVSLSNAAVELAQKVNLECKILDVKELEELKMGAYLSVGKGSMYPNKFIHLTYKGAQTGASQNEKKKIALIGKGITFDSGGYNLKAAPGSMIDLMKFDMSGCAAVLGCAYCIGTIKPDNVEVHFLSAVCENMVSKNSYRPGDIITASNGKTIEVGNTDAEGRLTLADALVYAEKLGVDYIVDIATLTGAMLYSLGTSYAGVFGNNDQLINKILSSSKTSNEPVWWLPIINEYRSSLNSKYADLNNISSSVKASSVVASLFLKEFIENTPWAHIDIAGVSWNFKARKPKGFGVRLLTEFVLNDAV
notes: M17 leucyl aminopeptidase of Plasmodium vivax, residues 73-621; N-terminal truncation of 72 residues; it is residues 73-621; Synthetic gene (DNA 2.0) in pJ404; also called PvLAP; Pv-M17 WT; source: E. coli BL21 DE3, purified (Ni-NTA, SEC)
On to B2, for which the “stoichiometry N” value in data set [2] is 2; in data set [3], 6; in data set [4] it was 4.

B3: Pv-M17 (D395A and E477L) (enzyme)
chain: B2 chain with D323A, E405L
notes: also called Pv-M17(AL); Pv-M17 (AL); source: E. coli BL21 DE3, purified (Ni-NTA, SEC)
In the case of B3, in data set [5], the binding result was “binds”.

B4: Plasmodium falciparum M17 aminopeptidase PfA-M17 (residues 84-605), wild type (enzyme, UniProt Q8IL11 84-605, looked up)
chain: MASEVPQVVSLDPTSIPIEYNTPIHDIKVQVYDIKGGCNVEEGLTIFLVNNPGKENGPVKISSKVNDKNVSEFLKDENMEKFNVKLGTSKHFYMFNDNKNSVAVGYVGCGSVADLSEADMKRVVLSLVTMLHDNKLSKLTVVFEINVDKNLFRFFLETLFYEYMTDERFKSTDKNVNMEYIKHLGVYINNADTYKEEVEKARVYYFGTYYASQLIAAPSNYCNPVSLSNAAVELAQKLNLEYKILGVKELEELKMGAYLSVGKGSMYPNKFIHLTYKSKGDVKKKIALVGKGITFDSGGYNLKAAPGSMIDLMKFDMSGCAAVLGCAYCVGTLKPENVEIHFLSAVCENMVSKNSYRPGDIITASNGKTIEVGNTDAEGRLTLADALVYAEKLGVDYIVDIATLTGAMLYSLGTSYAGVFGNNEELINKILNSSKTSNEPVWWLPIINEYRATLNSKYADINNISSSVKASSIVASLFLKEFVQNTAWAHIDIAGVSWNFKARKPKGFGVRLLTEFVLNDAL
notes: M17 leucyl aminopeptidase of Plasmodium falciparum, residues 84-605; residues 1-83 (asparagine-rich low complexity region) omitted; In solution a metal-dependent equilibrium of monomer, dimer, tetramer and hexamer; also called PfLAP; PfA-M17 WT; source: E. coli BL21 DE3, purified (Ni-NTA, SEC)
On to B4, for which the “stoichiometry N” value turned out to be 6 in data set [2] and 2 in data set [5].

B5: PfA-M17 (D379A + E461L) (enzyme)
chain: B4 chain with D296A, E378L
notes: also called PfA-M17(AL); PfA-M17 (AL); source: E. coli BL21 DE3, purified (Ni-NTA, SEC)
As to B5, in data set [5], the binding result is reported as “binds”.
